Assay results from article PMC10318465, “A heme pocket aromatic quadrupole modulates gas binding to cytochrome c′-β: Implications for NO sensors” (The Journal of Biological Chemistry, 2023).

Legend:
His123 = His123 (UniProt position 143, GCFGCHAAQKE); test: UV-vis; settings: 1x MHTCP cocktail buffer (5x stock: 500 mM CAPS, 250 mM Mes, 250 mM Hepes, 250 mM Pipes, 250 mM TAPS), sodium dithionite, excess PROLI NONOate, Ferrous heme-nitrosyl Fe(II)NO complex, 5 uM protein, equilibrium between 5cNO (His 123 dissociated) and 6cNO (His 123 bound)
[1] = Literature kinetic parameters of six-coordinate Fe(II)CO complexes of selected heme proteins; assay type: binding; settings: from literature koff(CO) values of Table 4
[2] = 6cNO; ref AxCP-α [9],[56]; L16A [9],[10]; Mb pig wt and V68T [57]; sGC [17],[58]; Ns H-NOX [16]; cited from earlier work
[3] = set-up: method as in earlier work; settings: 6cCO, ref AxCP-α [9],[56], L16A [9],[10], Mb pig wt and V68T [57], H64V,V68T [25], sGC [17],[58], Ns H-NOX [16], cited from earlier work; for Kd: read-out: Kd(CO)

| Molecule | pKa (His123) | increase of koff(CO) relative to wt Mb [1] [fold] | kon(NO) [2] [M⁻¹ s⁻¹] | koff(CO) [3] [s⁻¹] | kon(CO) [3] [M⁻¹ s⁻¹] | Kd [3] [µM] |
| --- | --- | --- | --- | --- | --- | --- |
| Cytochrome c'-beta (McCP-beta) (Methylococcus capsulatus (Bath)) | 7.17 ± 0.03 |  |  |  |  |  |
| V68T: V68T variant of pig myoglobin (Mb) (protein, UniProt P02189 2-154, looked up, variant V68T) Myoglobin: GLSDGEWQLVLNVWGKVEADVAGHGQEVLIRLFKGHPETLEKFDKFKHLKSEDEMKASEDLKKHGNTTLTALGGILKKKGHHEAELTPLAQSHATKHKIPVKYLEFISEAIIQVLQSKHPGDFGADAQGAMSKALELFRNDMAAKYKELGFQG |  | ~4 | 4.9e+06 | 0.079 | 610000 | 0.13 |
| Mb pig (wt): wild-type pig myoglobin (protein, UniProt P02189 2-154, looked up) Myoglobin: GLSDGEWQLVLNVWGKVEADVAGHGQEVLIRLFKGHPETLEKFDKFKHLKSEDEMKASEDLKKHGNTVLTALGGILKKKGHHEAELTPLAQSHATKHKIPVKYLEFISEAIIQVLQSKHPGDFGADAQGAMSKALELFRNDMAAKYKELGFQG |  |  | 1.7e+07 | 0.019 | 780000 | 0.024 |
| H64V, V68T: H64V/V68T Mb double variant (protein, UniProt P02189 2-154, looked up, variant H64V V68T) Myoglobin: GLSDGEWQLVLNVWGKVEADVAGHGQEVLIRLFKGHPETLEKFDKFKHLKSEDEMKASEDLKKVGNTTLTALGGILKKKGHHEAELTPLAQSHATKHKIPVKYLEFISEAIIQVLQSKHPGDFGADAQGAMSKALELFRNDMAAKYKELGFQG |  | ~3 |  | 0.063 | 2.7e+07 | 0.0023 |
